Experimental data published in patent US20240108653A1 (UNIVERSITY OF UTAH RESEARCH FOUNDATION, published 2024).
Each block holds one binder with its values, some of them ahead of it.

Biological target: T1, Leucine-Rich Repeat and Ig Domain Protein 1 (LINGO1) (UniProt Q96FE5 42-620, limits assumed)
T1 construct: whole, on cells; It is endogenous on Ewing sarcoma cell lines and transduced in K562 cells
T1 sequence (looked up): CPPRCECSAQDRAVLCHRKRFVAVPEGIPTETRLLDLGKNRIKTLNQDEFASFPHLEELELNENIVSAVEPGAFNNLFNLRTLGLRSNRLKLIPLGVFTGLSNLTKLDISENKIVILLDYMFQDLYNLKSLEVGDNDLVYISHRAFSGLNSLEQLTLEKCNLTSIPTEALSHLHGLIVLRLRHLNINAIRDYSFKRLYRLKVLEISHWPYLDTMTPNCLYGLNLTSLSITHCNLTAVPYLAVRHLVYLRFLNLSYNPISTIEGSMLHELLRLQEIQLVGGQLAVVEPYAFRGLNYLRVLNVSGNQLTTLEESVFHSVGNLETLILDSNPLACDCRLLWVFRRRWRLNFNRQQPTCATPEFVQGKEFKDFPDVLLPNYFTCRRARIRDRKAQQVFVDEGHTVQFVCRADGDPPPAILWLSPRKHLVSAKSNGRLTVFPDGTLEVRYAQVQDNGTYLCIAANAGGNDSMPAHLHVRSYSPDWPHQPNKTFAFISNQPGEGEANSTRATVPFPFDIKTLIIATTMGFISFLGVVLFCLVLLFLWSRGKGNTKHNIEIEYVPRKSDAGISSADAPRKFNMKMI
Experiment: flow cytometry on Ewing sarcoma cell lines; scFv detected with anti-FLAG/APC secondary antibody
Protocol: FIGS. 4A-4I show LINGO1-specific CAR T cells show cytotoxic activity against Ewing sarcoma. (FIG. 4A) mRNA expression of LINGO1 and GAPDH housekeeping gene in Ewing sarcoma cell lines and healthy brain tissue as determined by RT-PCR. (FIG. 4B) Schema of CAR construct and four LINGO1-specific scFv domains (FIG. 4C) Binding of LINGO1-specific scFvs at 5 µg/ml and secondary staining with an anti-FLAG/APC antibody (clone: L5). against Ewing sarcoma cell lines as determined by flow cytometry. Secondary antibody alone is shown in grey. (FIG. 4D) LINGO1 CAR surface expression on primary T cells after staining with an anti-HA/APC antibody as determined by flow cytometry. (FIG. 4E) IFNγ secretion as determined by ELISA and (FIG. 4F) anti-tumor activity as determined by luminescence-based cytotoxicity assay of CAR T cells expressing LINGO1 CAR variants after 24 h co-culture with A673 cells at an effector-target ratio of 1:1. (FIG. 4G) Expansion of LINGO1 CAR T cells based on Li81 VLVH and T cels expressing a CAR without a binding domain (ΔscFv). (FIG. 4H) IFNγ and IL2 production as determined by ELISA and (FIG. 4I) anti-tumor activity as determined by luminescence-based cytotoxicity assay by LINGO1 CAR T cells after 24 h co-culture with Ewing sarcoma cell lines at different effector-target ratios. Data represent mean±SD from 3 technical replicates. Statistical significance was determined by two-sided Student's t test.
CAR T cells targeting LINGO1 for the treatment of Ewing sarcoma were developed.

binding result: binds
B1: Li81 scFv, VLVH orientation (scFv)
scFv: DIQMTQSPATLSLSPGERATLSCRASQSVSSYLAWYQQKPGQAPRLLIYDASNRATGIPARFSGSGSGTDFTLTISSLEPEDFAVYYCQQRSNWPMYTFGQGTKLEIKGGGGSGGGGSGGGGSEVQLLESGGGLVQPGGSLRLSCAASGFTFSAYEMKWVRQAPGKGLEWVSVIGPSGGFTFYADSVKGRFTISRDNSKNTLYLQMNSLRAEDTAVYYCATEGDNDAFDIWGQGTTVTVSS
notes: It was detected with an anti-FLAG/APC antibody, so it carried a FLAG tag; also called Li81 VLVH; LINGO1-specific scFv

binding result: binds
B2: Li62 scFv, VLVH orientation (scFv)
scFv: DIQMTQSPSFLSASVGDSVAITCRASQDISRYLAWYQQRPGKAPKLLIYDASNLQTGVPSRFSGSGSGTDFTFTITSLQPEDFGTYYCQQYDTLHPSFGPGTTVDIKGGGGSGGGGSGGGGSEVQLLESGGGLVQPGGSLRLSCAASGFTFSIYPMFWVRQAPGKGLEWVSWIGPSGGITKYADSVKGRFTISRDNSKNTLYLQMNSLRAEDTATYYCAREGHNDWYFDLWGRGTLVTVSS
notes: It was detected with an anti-FLAG/APC antibody, so it carried a FLAG tag; also called Li62 VLVH; LINGO1-specific scFv

binding result: binds
B3: Li81 scFv, VHVL orientation (scFv)
scFv: EVQLLESGGGLVQPGGSLRLSCAASGFTFSAYEMKWVRQAPGKGLEWVSVIGPSGGFTFYADSVKGRFTISRDNSKNTLYLQMNSLRAEDTAVYYCATEGDNDAFDIWGQGTTVTVSSGGGGSGGGGSGGGGSDIQMTQSPATLSLSPGERATLSCRASQSVSSYLAWYQQKPGQAPRLLIYDASNRATGIPARFSGSGSGTDFTLTISSLEPEDFAVYYCQQRSNWPMYTFGQGTKLEIK
notes: It was detected with an anti-FLAG/APC antibody, so it carried a FLAG tag; also called Li81 VHVL; LINGO1-specific scFv

binding result: binds
B4: Li62 scFv, VHVL orientation (scFv)
scFv: EVQLLESGGGLVQPGGSLRLSCAASGFTFSIYPMFWVRQAPGKGLEWVSWIGPSGGITKYADSVKGRFTISRDNSKNTLYLQMNSLRAEDTATYYCAREGHNDWYFDLWGRGTLVTVSSGGGGSGGGGSGGGGSDIQMTQSPSFLSASVGDSVAITCRASQDISRYLAWYQQRPGKAPKLLIYDASNLQTGVPSRFSGSGSGTDFTFTITSLQPEDFGTYYCQQYDTLHPSFGPGTTVDIK
notes: It was detected with an anti-FLAG/APC antibody, so it carried a FLAG tag; also called Li62 VHVL; LINGO1-specific scFv
